Results: PMC3133606

Target: protective antigen, full-length wild type, nicked (nPA) and assembled into oligomers (Bacillus anthracis)
Test: electron microscopy

Question: For “protective antigen, full-length wild type, nicked (nPA) and assembled into oligomers (natural protein)”, which fold less octamer with Δ47 LFN than with WT LFN is on record?
Answer: 10 fold
